Results on 6 molecules are retold here after doi:10.1101/2025.02.14.638310 (bioRxiv, 2025).

The term Kd denotes the free concentration of one partner at which half of the binding sites on the other are occupied at equilibrium, for simple one-to-one binding.

Assay [1] concerns the target T1, Pfs230 fused C-terminally with a 3xFLAG-C-tag (endogenous, parasite line iGP2^230-tag) (Plasmodium falciparum (endogenous in …, UniProt P68874)).
T1 construct: not shown: 3xFLAG, C-terminal, kept
Put plainly: native gel or EMSA. As to conditions: both partners purified. A general note: In EMSA bound probe runs differently from free probe, usually more slowly.

A further assay addresses Pfs48/45 (endogenous) (Plasmodium falciparum (endogenous in …, UniProt Q8I6T1)). Description: cryo-EM structure. As to conditions: both partners purified.
Assay [2] has as its target T2, Pfs230:Pfs48/45 complex (endogenous, FLAG-tag purified) (Plasmodium falciparum (isolate 3D7)., UniProt P68874;Q8I6T1).
T2 construct: not shown: 3xFLAG, C-terminal, kept
Put plainly: native gel or EMSA. As to conditions: both partners purified.

Assay [3] concerns the target T3, Pfs230D7 (recombinant, WT) (Plasmodium falciparum 3D7, UniProt P68874).
T3 construct: source: wheat germ cell-free extract WEPRO7240H with Disulfide Bond Enhancer Enzyme Set, purified (Ni Sepharose 6 Fast Flow)
Put plainly: SPR. As to conditions: both partners purified.

The target in assay [4] is T4, Pfs230 fused C-terminally with a 3xFLAG-C-tag (endogenous, parasite line iGP2^230-tag) (Plasmodium falciparum (endogenous in …, UniProt P68874 21-3135)).
T4 construct: not shown: 3xFLAG, C-terminal, kept
Put plainly: affinity purification with mass spectrometry. The note with it: partners not purified.

T2 sequence (P68874 21-3135, one chain of several): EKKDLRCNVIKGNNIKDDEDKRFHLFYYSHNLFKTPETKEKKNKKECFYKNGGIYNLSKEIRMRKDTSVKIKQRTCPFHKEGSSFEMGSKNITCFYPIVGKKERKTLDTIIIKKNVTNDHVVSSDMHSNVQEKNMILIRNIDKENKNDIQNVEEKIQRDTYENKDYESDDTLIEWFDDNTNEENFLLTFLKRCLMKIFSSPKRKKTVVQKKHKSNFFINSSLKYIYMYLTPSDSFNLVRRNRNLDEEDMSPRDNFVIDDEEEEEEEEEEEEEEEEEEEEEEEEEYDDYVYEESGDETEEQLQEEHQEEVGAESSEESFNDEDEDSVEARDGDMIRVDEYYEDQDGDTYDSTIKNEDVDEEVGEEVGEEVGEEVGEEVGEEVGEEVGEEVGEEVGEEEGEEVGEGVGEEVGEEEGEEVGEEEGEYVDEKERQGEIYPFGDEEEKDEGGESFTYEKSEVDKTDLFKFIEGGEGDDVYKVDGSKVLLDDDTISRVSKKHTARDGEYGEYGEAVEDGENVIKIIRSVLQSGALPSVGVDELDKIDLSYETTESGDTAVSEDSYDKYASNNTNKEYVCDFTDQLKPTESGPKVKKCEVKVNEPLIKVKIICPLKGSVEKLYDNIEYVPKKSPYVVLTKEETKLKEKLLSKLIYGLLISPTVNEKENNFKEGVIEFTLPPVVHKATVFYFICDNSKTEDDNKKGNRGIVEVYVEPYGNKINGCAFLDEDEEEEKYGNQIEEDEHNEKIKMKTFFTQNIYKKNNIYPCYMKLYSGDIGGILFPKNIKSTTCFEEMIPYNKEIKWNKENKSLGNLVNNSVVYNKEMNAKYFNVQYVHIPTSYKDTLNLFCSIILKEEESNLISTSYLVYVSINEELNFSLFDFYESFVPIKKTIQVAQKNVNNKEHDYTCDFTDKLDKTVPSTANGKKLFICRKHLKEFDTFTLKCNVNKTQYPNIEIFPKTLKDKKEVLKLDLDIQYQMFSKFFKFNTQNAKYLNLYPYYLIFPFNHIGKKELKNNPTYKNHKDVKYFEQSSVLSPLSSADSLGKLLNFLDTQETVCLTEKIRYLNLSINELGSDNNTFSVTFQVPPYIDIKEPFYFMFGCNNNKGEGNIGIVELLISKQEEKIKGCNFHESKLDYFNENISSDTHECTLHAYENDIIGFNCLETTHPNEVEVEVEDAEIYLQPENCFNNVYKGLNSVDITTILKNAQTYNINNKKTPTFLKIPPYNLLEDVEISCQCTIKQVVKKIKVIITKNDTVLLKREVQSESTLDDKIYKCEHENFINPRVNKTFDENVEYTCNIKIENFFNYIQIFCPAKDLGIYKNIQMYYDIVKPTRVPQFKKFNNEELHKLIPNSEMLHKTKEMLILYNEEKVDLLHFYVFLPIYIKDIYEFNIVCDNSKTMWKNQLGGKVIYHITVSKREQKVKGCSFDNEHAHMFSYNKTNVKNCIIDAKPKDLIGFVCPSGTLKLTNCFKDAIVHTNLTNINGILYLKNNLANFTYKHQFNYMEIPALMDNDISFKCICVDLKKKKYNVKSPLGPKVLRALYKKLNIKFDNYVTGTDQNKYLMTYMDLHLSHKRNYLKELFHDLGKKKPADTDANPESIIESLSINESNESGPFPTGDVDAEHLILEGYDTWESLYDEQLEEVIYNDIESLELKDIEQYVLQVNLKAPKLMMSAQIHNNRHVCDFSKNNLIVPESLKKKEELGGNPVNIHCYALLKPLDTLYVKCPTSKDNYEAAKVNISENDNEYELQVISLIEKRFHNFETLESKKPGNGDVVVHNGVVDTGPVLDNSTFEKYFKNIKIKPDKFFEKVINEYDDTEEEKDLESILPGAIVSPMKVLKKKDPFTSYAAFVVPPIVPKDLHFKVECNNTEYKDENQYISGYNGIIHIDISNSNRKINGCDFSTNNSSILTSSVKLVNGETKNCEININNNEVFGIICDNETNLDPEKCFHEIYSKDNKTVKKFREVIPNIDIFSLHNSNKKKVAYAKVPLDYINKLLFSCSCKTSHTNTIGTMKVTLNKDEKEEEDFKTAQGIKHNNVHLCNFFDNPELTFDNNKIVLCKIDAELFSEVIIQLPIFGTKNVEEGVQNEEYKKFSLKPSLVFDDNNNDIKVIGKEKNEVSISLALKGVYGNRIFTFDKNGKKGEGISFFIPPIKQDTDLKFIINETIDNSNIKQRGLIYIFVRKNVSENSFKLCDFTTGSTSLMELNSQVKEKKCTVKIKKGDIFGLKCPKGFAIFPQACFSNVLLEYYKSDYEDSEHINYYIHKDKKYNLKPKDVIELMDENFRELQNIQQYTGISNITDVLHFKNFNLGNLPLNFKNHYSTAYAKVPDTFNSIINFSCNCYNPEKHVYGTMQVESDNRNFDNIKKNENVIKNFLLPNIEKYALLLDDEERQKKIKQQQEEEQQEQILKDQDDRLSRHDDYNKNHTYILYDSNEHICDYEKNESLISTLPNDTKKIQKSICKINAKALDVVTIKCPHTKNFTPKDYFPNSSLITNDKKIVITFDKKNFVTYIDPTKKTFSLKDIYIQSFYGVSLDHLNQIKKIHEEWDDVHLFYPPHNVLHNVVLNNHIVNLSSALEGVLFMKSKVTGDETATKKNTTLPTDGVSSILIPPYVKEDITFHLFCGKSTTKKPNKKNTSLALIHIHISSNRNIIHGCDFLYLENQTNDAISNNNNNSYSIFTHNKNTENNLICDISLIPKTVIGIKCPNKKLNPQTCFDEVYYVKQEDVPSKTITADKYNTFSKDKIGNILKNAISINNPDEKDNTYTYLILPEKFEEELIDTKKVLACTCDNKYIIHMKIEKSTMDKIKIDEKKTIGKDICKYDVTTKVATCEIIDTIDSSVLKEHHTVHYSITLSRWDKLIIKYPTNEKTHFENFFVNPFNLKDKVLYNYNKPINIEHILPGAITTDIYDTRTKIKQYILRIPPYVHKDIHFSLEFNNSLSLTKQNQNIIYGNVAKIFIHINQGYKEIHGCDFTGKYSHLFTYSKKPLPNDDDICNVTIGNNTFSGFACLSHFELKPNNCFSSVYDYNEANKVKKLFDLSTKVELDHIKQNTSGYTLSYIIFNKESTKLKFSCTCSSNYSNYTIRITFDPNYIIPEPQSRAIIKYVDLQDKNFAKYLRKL

B1: 2A2 Fab (Fab, V domains shown)
VH: EVQLQQSGPELEKPGASVKISCKASGYSITDYNMNWVKLSNGKSLEWIGNIDPSHGGTTYNQKFKGKATLTVDKSSSTAYMQLKSLTSEDSAVYHCARSTLYGNSAMDCWGQGTSVTVSS
VL: SIVMTQTPKFLLVPAGDRVTITCKASQSVNNDVTWYQQKPGQSPKLLIYYASNRYTGVPDRFTGSGYGTDFTFTISTVQAEDLAVYFCQQDYSSPLTFGAGTKLEL
notes: also called mAb 2A2; 2A2.2a; source: Freestyle 293-F or 293-S cells, transfected, purified (KappaSelect, MonoS cation exchange)
For the molecule B1, the binding result in assay [1] is given as “binds”.

B2: RUPA-44 Fab (Fab, V domains shown)
VH: QLQLQESGPGLVKPSETLSLTCTVSGGSISRSPYYWGWIRQPPGKGLEWFGSIYNNGSTYYNPPLKSRLTISVDTSKNQFSLKLSSVTAADTAVYYCARHGGSTGMKVVVIAPPDYWGQGTLVTVSS
VL: DIQMTQSPATLSASVGDRVTITCRASQSISSWLAWYQQKPGEAPKLLIYKASSLQSGVPSRFSGSGSGTKFSLTISSLQPDDFATFYCQQYHSYPYTFGQGTKLEIK
notes: source: Freestyle 293-F or 293-S cells, transfected, purified (KappaSelect, MonoS cation exchange)
Turning to B2, the binding result with Pfs48/45 (endogenous) is “binds”.

B3: RUPA-47 Fab (Fab, V domains shown)
VH: QVQLVQSGAEVKKPGASVKLSCTASGYTFTNFGITWVRQAPGQGLEWMAWISVYSGDTDYAQRFQGRVTMTTDTSTRTAYMEMRSLSFDDTAVYYCVRGGRDSPILGGYWGQGTLVTVSS
VL: EIVLTQSPGTLSLSPGERVTLSCRASQSVRSMYLAWYQQKPGQAPRLLIHGASIRATGIPDRFSGSGSGTDFTLTISRLEREDFAVYYCHQYGSSPLTFGGGTKVESK
notes: as for B2
B3: the binding result is “no binding (tested: tenfold molar excess Fab)” in assay [1] and “binds” in assay [2].

B4: RUPA-71 Fab (Fab, V domains shown)
VH: EEQLVESGGGLVKPGRSLRLSCSASGFTLGDYAVTWFRQASGKEPEWVGVIRTKDEGGTTEYAASVKGRFSILRDDSKSIAHLQMNSLKIEDTAVYYCTRNGLRWYDSSGPRGWAFDIWGPGTLVVVSS
VL: EIVMTQSPATVSVSPGERATLSCRTSQSVSNKLAWYQQKPGQAPRLLIYGASTRATGIPARFSGSGSGTQFTLTISSLQSEDFAVYYCQQYNNWPPWTFGRGTKVEIK
notes: as for B2
On to B4, for which the binding result (in the assay with Pfs48/45 (endogenous); in assay [2]) was “binds” each time.

B5: 18F25 Fab (Fab, V domains shown)
VH: QVQLQQSGAELARPGASVKLSCKASGYTFTNYWMQWVKQRPGQGLEWFGAIYPGDGDTRYTQKFKGKATLTADKSSSTAYMQLSSLASEDSAVYYCARSLYLGAMDYWGQGTSVTVSS
VL: DIVMTQSHKFMSTSVGDRVSITCKASQDVTNDVAWYQQKPGQSPKLLIYSASYRYTGVPDRFTGSGSGTDFIFTISSVQAEDLAVYYCQQHYSAPPTFGGGTKLEIK
notes: also called mAb 18F25; 18F25.1; source: Freestyle 293-F or 293-S cells, transfected, purified (KappaSelect, MonoS cation exchange)
On to B5, for which, in assay [3], the Kd worked out at 1.8 nM.

B6: Pfs48/45 (endogenous) (natural protein)
chain: NNDFCKPSSLNSEISGFIGYKCNFSNEGVHNLKPDMRERRSIFCTIHSYFIYDKIRLIIPKKSSSPEFKILPEKCFQKVYTDYENRVETDISELGLIEYEIEENDTNPNYNERTITISPFSPKDIEFFCFCDNTEKVISSIEGRSAMVHVRVLKYPHNILFTNLTNDLFTYLPKTYNESNFVSNVLEVELNDGELFVLACELINKKCFQEGKEKALYKSNKIIYHKNLTIFKAPFYVTSKDVNTECTCKFKNNNYKIVLKPKYEKKVIHGCNFSSNVSSKHTFTDSLDISLVDDSAHISCNVHLSEPKYNHLVGLNCPGDIIPDCFFQVYQPESEELEPSNIVYLDSQINIGDIEYYEDAEGDDKIKLFGIVGSIPKTTSFTCICKKDKKSAYMTVTID
Regarding B6, in assay [4], the binding result is given as “binds”.
